Measurements as given in US20070274981A1.

Columns and labels:
Recombinant FGFR-1(IIIc) [1] = target: Recombinant FGFR-1(IIIc) (UniProt P11362); assay: kinetic analysis (BiaCore)
Recombinant FGFR-1(IIIc) [2] = target: Recombinant FGFR-1(IIIc) (UniProt P11362); assay: ELISA blocking assay: FGFR-1(IIIc) binding to immobilised FGF-1
[3] = target: FGFR-1(IIIc) on transfected L6 cells (UniProt P11362); assay: cell-based blocking assay: 125I-FGF-2 (15 ng/ml) binding to FGFR-1(IIIc)-expressing L6 cells
Recombinant FGFR-1(IIIc) [4] = target: Recombinant FGFR-1(IIIc) (UniProt P11362); assay: ELISA blocking assay: FGFR-1(IIIc) binding to immobilised FGF-2
Recombinant FGFR-1(IIIc) [5] = target: Recombinant FGFR-1(IIIc) (UniProt P11362); assay: BiaCore 3000 biosensor, binding kinetics
Recombinant FGFR-1(IIIc) [6] = target: Recombinant FGFR-1(IIIc) (UniProt P11362); assay: ELISA blocking assay: FGFR-1(IIIc) binding to FGF-1
Recombinant FGFR-1(IIIc) [7] = target: Recombinant FGFR-1(IIIc) (UniProt P11362); assay: ELISA blocking assay: FGFR-1(IIIc) binding to FGF-2

B1: FR1-H7 (antibody, V domains shown)
VH: EVQLVQSGAEVKKPGASVKVSCKVSGYTFTDYYMHWVQQAPGKGLEWMGLVDPEDGETIYAEKFQGRVTITADTSTDTAYMELSSLRSEDTAVYYCARDDYMDVWGKGTLVTVSS
VL: ETTLTQSPDTLSLSPGEGATLSCRASQSVSGSALAWYQQKPGQAPRLLIYDASSRATGVPDRFSGSGSGADFSLTISRLEPEDFAVYSCQQYGSSPLTFGPGTKVDVKR
B1 was tested, and the Kd (Recombinant FGFR-1(IIIc) [1]) was 0.05 nM, the IC50 (Recombinant FGFR-1(IIIc) [2]) was 5 nM and the IC50 [3] was under 5 nM. It also gave an IC50 (Recombinant FGFR-1(IIIc) [4]) of 2 to 5 nM and a Kd (Recombinant FGFR-1(IIIc) [5]) of 0.04 nM.

B2: FR1-A1 (antibody, V domains shown)
VH: QVQLVQSGAEVKKPGSSVKVSCKASGQTFTGYYMHWVRQAPGQGLEWMGRIIPILGIANYAQKFQGRVTITADKSTSTAYMELSSLRSEDTAVYYCARGGDLGGMDVWGQG
VL: EIVLTQSPLSLPVTPGEPASISCRSSQSLRHSNGYNYLDWYLQKPGQSPQLLIYLASNRASGVPDRFSGSGSGTDFTLKISRVEAEDVGVYYCMQALQIPPTFGPGTKVDIKR
Work on B2 yielded an IC50 (Recombinant FGFR-1(IIIc) [6]) of 5 nM, a Kd (Recombinant FGFR-1(IIIc) [1]) of 0.7 nM and an IC50 (Recombinant FGFR-1(IIIc) [7]) of 10 nM.
